Sequences and labels used below:
B1: target 1 A16G,C22A (mixed)
RNA 1: CACCCGUGCAAAAAUGCAGGGGUCUAAAACUGAGCGGAUAACCUCUCUAUGG
RNA 2: GGGAAUGGAUCCACAUCUACGAAUUCGUAACAUAGGGAGGUUAUCCGCUCACCGAGAUCGGAAGAGCACACGU
B2: target 1 C7G,A16C (mixed)
RNA 1: B1 RNA 1
RNA 2: B1 RNA 2 with A30C, G36C, C45G
B3: target 1 insU 3' of 15,insA 3' of 7 (mixed)
RNA 1: B1 RNA 1
RNA 2: GGGAAUGGAUCCACAUCUACGAAUUCGUACCAUAGAGUAGGUUAUCACGCUCACCGAGAUCGGAAGAGCACACGU
B4: target 1 U3G,C7G (mixed)
RNA 1: B1 RNA 1
RNA 2: B1 RNA 2 with A30C, G36A, C45G, U49G
B5: target 1 insC 3' of 17,insA 3' of 10 (mixed)
RNA 1: B1 RNA 1
RNA 2: B3 RNA 2 with A36C, G37A, U38G, U45A, C46U, A47C
B6: target 1 C4A,C7G (mixed)
RNA 1: B1 RNA 1
RNA 2: B1 RNA 2 with A30C, G36A, C45G, C48A
B7: target 1 C4U,C7A (mixed)
RNA 1: B1 RNA 1
RNA 2: B1 RNA 2 with A30C, G36A, C45A, C48U
B8: target 1 C6A,G12U (mixed)
RNA 1: B1 RNA 1
RNA 2: B1 RNA 2 with A30C, G36A, G40U, C46A
B9: target 1 U3A,G5U (mixed)
RNA 1: B1 RNA 1
RNA 2: B1 RNA 2 with A30C, G36A, G47U, U49A
B10: target 1 del8,del11 (mixed)
RNA 1: B1 RNA 1
RNA 2: GGGAAUGGAUCCACAUCUACGAAUUCGUACCAUAGAGAGGUACCGCUCACCGAGAUCGGAAGAGCACACGU
B11: target 1 insU 3' of 14,insG 3' of 2 (mixed)
RNA 1: B1 RNA 1
RNA 2: B3 RNA 2 with U38A, A39U, A47C, C48G, G49C, C50U, U51C, C52G
B12: target 1 insC 3' of 17,insU 3' of 7 (mixed)
RNA 1: B1 RNA 1
RNA 2: B3 RNA 2 with A36C, G37A, U38G, A47U
B13: target 1 insA 3' of 11,insG 3' of 8 (mixed)
RNA 1: B1 RNA 1
RNA 2: B3 RNA 2 with U38A, A39G, G41U, U42A, C46G, A47C
B14: target 1 insC 3' of 18,insU 3' of 4 (mixed)
RNA 1: B1 RNA 1
RNA 2: B3 RNA 2 with G35C, A36G, G37A, U38G, A47C, C48G, G49C, C50U
B15: target 1 G17A,C21A (mixed)
RNA 1: B1 RNA 1
RNA 2: B1 RNA 2 with A30C, C31A, G35A, G36A
B16: target 1 insU 3' of 20,insG 3' of 8 (mixed)
RNA 1: B1 RNA 1
RNA 2: B3 RNA 2 with A34U, G35A, A36G, G37A, U38G, C46G, A47C
B17: target 1 G15A,A16G (mixed)
RNA 1: B1 RNA 1
RNA 2: B1 RNA 2 with A30C, G37A
B18: target 1 insC 3' of 12,insG 3' of 8 (mixed)
RNA 1: B1 RNA 1
RNA 2: B3 RNA 2 with U38A, A39G, G41C, C46G, A47C
B19: target 1 U3G,A9U (mixed)
RNA 1: B1 RNA 1
RNA 2: B1 RNA 2 with A30C, G36A, A43U, U49G
B20: target 1 insG 3' of 21,insC 3' of 9 (mixed)
RNA 1: B1 RNA 1
RNA 2: GGGAAUGGAUCCACAUCUACGAAUUCGUACCGAUAGAGAGGUUACUCCGCUCACCGAGAUCGGAAGAGCACACGU
B21: target 1 insG 3' of 21 (mixed)
RNA 1: B1 RNA 1
RNA 2: GGGAAUGGAUCCACAUCUACGAAUUCGUACCGAUAGAGAGGUUAUCCGCUCACCGAGAUCGGAAGAGCACACGU
B22: target 1 insG 3' of 14,insC 3' of 9 (mixed)
RNA 1: B1 RNA 1
RNA 2: B3 RNA 2 with U38A, A39G, U45C, C46U, A47C
B23: target 1 A14G,U19C (mixed)
RNA 1: B1 RNA 1
RNA 2: B1 RNA 2 with A30C, U33C, G36A, A38G
B24: target 1 insC 3' of 14,insG 3' of 2 (mixed)
RNA 1: B1 RNA 1
RNA 2: B3 RNA 2 with U38A, A39C, A47C, C48G, G49C, C50U, U51C, C52G
B25: target 1 insG 3' of 9,insU 3' of 4 (mixed)
RNA 1: B1 RNA 1
RNA 2: B3 RNA 2 with U38A, A39G, G41U, U43A, A44G, A47C, C48G, G49C, C50U
B26: target 1 insC 3' of 20,insC 3' of 11 (mixed)
RNA 1: B1 RNA 1
RNA 2: B20 RNA 2 with G32A, A33C, U43C, A44U, C45A
B27: target 1 insU 3' of 22,insU 3' of 12 (mixed)
RNA 1: B1 RNA 1
RNA 2: B20 RNA 2 with C31U, G32C, A44U, C45A

Where a chain is given by its changes, count along the chain named. Names may count otherwise.

This data set deals with T1, EsCas13d, nuclease-dead (Eubacterium siraeum, UniProt B0MS50, R295A;H300A;R849A;H854A).
T1 sequence: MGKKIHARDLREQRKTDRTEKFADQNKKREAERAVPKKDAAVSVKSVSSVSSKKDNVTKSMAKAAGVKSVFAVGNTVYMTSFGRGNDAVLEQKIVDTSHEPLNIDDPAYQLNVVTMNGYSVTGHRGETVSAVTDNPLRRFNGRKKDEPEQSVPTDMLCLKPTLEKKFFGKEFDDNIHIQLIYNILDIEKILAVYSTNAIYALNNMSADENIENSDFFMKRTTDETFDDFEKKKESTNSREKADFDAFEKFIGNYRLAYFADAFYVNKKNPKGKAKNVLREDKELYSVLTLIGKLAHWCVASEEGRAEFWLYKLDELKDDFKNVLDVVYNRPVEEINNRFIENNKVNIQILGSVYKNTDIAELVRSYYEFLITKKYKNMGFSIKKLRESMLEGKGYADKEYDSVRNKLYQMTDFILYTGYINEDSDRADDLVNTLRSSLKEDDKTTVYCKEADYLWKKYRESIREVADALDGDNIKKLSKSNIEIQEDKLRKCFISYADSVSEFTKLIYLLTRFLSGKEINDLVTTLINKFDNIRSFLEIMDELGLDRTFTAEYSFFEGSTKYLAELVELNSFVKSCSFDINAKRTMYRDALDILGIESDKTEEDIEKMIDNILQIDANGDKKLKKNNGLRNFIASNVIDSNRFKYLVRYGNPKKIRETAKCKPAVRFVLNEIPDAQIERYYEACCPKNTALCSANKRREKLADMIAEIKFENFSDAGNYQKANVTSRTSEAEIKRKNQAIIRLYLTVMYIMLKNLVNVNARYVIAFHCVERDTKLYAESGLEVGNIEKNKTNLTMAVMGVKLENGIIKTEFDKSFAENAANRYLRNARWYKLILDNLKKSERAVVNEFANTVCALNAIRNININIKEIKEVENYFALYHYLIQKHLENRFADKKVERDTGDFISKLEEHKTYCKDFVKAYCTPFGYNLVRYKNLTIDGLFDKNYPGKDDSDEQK
Nature of the data set: crRNA (strand 1, pre-loaded); Mg2+; 40 mM Tris-HCl pH 7.5, 150 mM NaCl, 6 mM MgCl2, 1 mM DTT, 0.1% Tween-20, 0.2 mg/ml BSA; 25 C; 10 min per concentration, then washed. Conditions: tags: His6-TwinStrep-SUMO cleaved; N-terminal SNAP kept (SNAP-Surface 488); label: 3' end held by stalled T7 RNA polymerase.
With B1, the Kd is 0.051 ± 0.01 µM. The figure for B2 is 0.063 ± 0.006 µM; for B3 it is 0.0082 ± 0.0006 µM; for B4 it is 0.00604 ± 0.00033 µM. The figure for B5 is 0.0432 ± 0.0034 µM. With B6 the figure was 0.0096 ± 0.0004 µM; with B7, 0.0112 ± 0.0008 µM; with B8, 0.0107 ± 0.0005 µM. B9 showed a Kd of 0.0144 ± 0.001 µM. With B10 the figure was 0.0257 ± 0.0017 µM; with B11, 0.044 ± 0.007 µM. B12: the Kd turned out to be 0.057 ± 0.006 µM.

Molecule B13 returned a Kd of 0.0356 ± 0.0023 µM.

For B14, the Kd came to 0.0258 ± 0.0018 µM. The figure for B15 is 0.056 ± 0.007 µM. With B16 the figure was 0.0204 ± 0.0016 µM; with B17, 0.051 ± 0.005 µM; with B18, 0.015 ± 0.0006 µM.

Molecule B19 registered a Kd of 0.0075 ± 0.0007 µM. With B20 the figure was 0.083 ± 0.016 µM; with B21, 0.067 ± 0.01 µM; with B22, 0.0127 ± 0.0006 µM.

B23: the Kd amounted to 0.063 ± 0.014 µM. The figure for B24 is 0.062 ± 0.023 µM; for B25 it is 0.0122 ± 0.0004 µM; for B26 it is 0.0112 ± 0.0011 µM. With B27 the figure was 0.0269 ± 0.0016 µM.

The term Kd denotes a measure of binding affinity in units of concentration.

The record behind these values is paper PMC10786891, “Massively parallel profiling of RNA-targeting CRISPR-Cas13d”.
